Reference: US9833497B2, “Human originated EGF domain proteins and use of the same” (CHENGDU SOURCEBIO LIMITED-LIABILITY COMPANY, priority 2013, dated 2017)

Legend:
Type in all cases: cell-based
E. coli DH5α = experiment: Antibacterial activity: MIC and growth curve against E. coli DH5α in 96-well plate; settings: minimal inhibitory concentration against E. coli DH5α; 96-well plate, 5×10^5 CFU/mL, 37° C., judged after 8 h
Experimental: 1. E. coli DH5α was exemplified. E. coli DH5α was streaked and cultured on LB solid medium. Then, a typical clone was picked and inoculated into common LB liquid medium, cultured at 37° C. with shaking at 185 rpm until the logarithmic growth phase was reached (OD600 of about 0.5). The bacterial culture was centrifuged at 4000×g for 3 min, the supernatant was discarded, and the thalli were resuspended with fresh LB medium.
2. The above-mentioned bacterial suspension was diluted and inoculated into a 96-well plate with the total volume of 100 μL per well and a bacterial count of 5×10^5 CFU/mL.
3. The recombinant protein hF VII-EGF1 was added to the above-mentioned wells with the final protein concentration in the well of the highest protein concentration being 50 μg/mL. Basing on this final concentration, a two-fold serial dilution was performed till a protein concentration gradient consisting of 50, 25, and 12.5 μg/mL was set up. Three parallel wells were set up for each concentration in the gradient.
4. The above-mentioned 96-well plate was placed and cultured at 37° C. in shaking incubator shaking at 175 rpm. Samples were taken every 30 min, the absorbance values were determined at 600 nm wavelength under a ultra violet spectrophotometer, and an inhibition curve was plotted. […] The minimal inhibitory concentration MIC is defined as the lowest concentration of the recombinant protein at which there is no growth of the bacteria.
According to the experimental procedures in Example 14, the minimal inhibitory concentrations (MIC, μg/mL) of the other human-originated EGF domain proteins (PRT2 to PRT1498 in Table 1) for E. coli DH5α were determined.

E. coli BL21 = experiment: MIC against Gram-negative bacteria: E. coli BL21; settings: 5×10^5 CFU/mL
Experimental: (§1) 1. Gram-negative bacteria, such as E. coli BL21, Pseudomonas aeruginosa, Klebsiella pneumonia, Enterobacter cloacae, Aeromonas hydrophila, Citrobacter diversus, Moraxella catarrhalis, Proteus mirabilis, Proteus vulgaris, Serratia marcescens, etc were streaked on solid LB medium and cultured respectively. Then, typical clones were picked, inoculated into common liquid LB medium respectively, and cultured at 37° C. with shaking at 185 rpm until the McFarland specific turbidity was 0.5. The bacterial culture of each of Gram-negative bacteria was centrifuged at 4000×g for 3 min, the supernatant was discarded, and the thalli were resuspended with fresh LB medium.
(§2) 2. The above-mentioned bacterial suspensions were diluted and inoculated into 96-well plates with the final concentration of the bacterial suspension being 5×10^5 CFU/mL per well.
(§3) 3. Each of the purified human-originated EGF domain proteins (PRT1 to PRT1498 in Table 1) was added to each of the above wells and subjected to two-fold serial dilution in concentration. Three parallel wells were set up for each concentration in the gradient.
(§4) 4. The above-mentioned 96-well plates were placed and cultured at 37° C. in shaking incubator shaking at 175 rpm. […] The minimal inhibitory concentration MIC is defined as the lowest concentration of the recombinant protein at which there is no growth of the bacteria.

Pseudomonas aeruginosa = experiment: MIC against Gram-negative bacteria: Pseudomonas aeruginosa; settings: 5×10^5 CFU/mL
Experimental: as §1, §2, §3, §4

Klebsiella pneumonia = experiment: MIC against Gram-negative bacteria: Klebsiella pneumonia; settings: 5×10^5 CFU/mL
Experimental: as §1, §2, §3, §4

Enterobacter cloacae = experiment: MIC against Gram-negative bacteria: Enterobacter cloacae; settings: 5×10^5 CFU/mL
Experimental: as §1, §2, §3, §4

Aeromonas hydrophila = experiment: MIC against Gram-negative bacteria: Aeromonas hydrophila; settings: 5×10^5 CFU/mL
Experimental: as §1, §2, §3, §4

Citrobacter diversus = experiment: MIC against Gram-negative bacteria: Citrobacter diversus; settings: 5×10^5 CFU/mL
Experimental: as §1, §2, §3, §4

Moraxella catarrhalis = experiment: MIC against Gram-negative bacteria: Moraxella catarrhalis; settings: 5×10^5 CFU/mL
Experimental: as §1, §2, §3, §4

Proteus mirabilis = experiment: MIC against Gram-negative bacteria: Proteus mirabilis; settings: 5×10^5 CFU/mL
Experimental: as §1, §2, §3, §4

Proteus vulgaris = experiment: MIC against Gram-negative bacteria: Proteus vulgaris; settings: 5×10^5 CFU/mL
Experimental: as §1, §2, §3, §4

Serratia marcescens = experiment: MIC against Gram-negative bacteria: Serratia marcescens; settings: 5×10^5 CFU/mL
Experimental: as §1, §2, §3, §4

[1] = 10 h cultivation at 37° C., two-fold serial dilution

Molecule	MIC (E. coli DH5α) [µg/mL]	MIC against E. coli BL21 (E. coli BL21; 96-well plate, 37° C., 10 h) [µg/mL]	MIC against P. aeruginosa (Pseudomonas aeruginosa; 96-well plate, 37° C., 10 h) [µg/mL]	MIC against K. pneumonia (Klebsiella pneumonia; 96-well plate, 37° C., 10 h) [µg/mL]	MIC against E. cloacae (Enterobacter cloacae; 96-well plate, 37° C., 10 h) [µg/mL]	MIC against A. hydrophila (Aeromonas hydrophila; 96-well plate, 37° C., 10 h) [µg/mL]	MIC against C. diversus (Citrobacter diversus; 96-well plate, 37° C., 10 h) [µg/mL]	MIC against M. catarrhalis (Moraxella catarrhalis; 96-well plate, 37° C., 10 h) [µg/mL]	MIC against P. mirabilis (Proteus mirabilis; 96-well plate, 37° C., 10 h) [µg/mL]	MIC against P. vulgaris (Proteus vulgaris; 96-well plate, 37° C., 10 h) [µg/mL]	MIC against S. marcescens (Serratia marcescens; 96-well plate, 37° C., 10 h) [µg/mL]	further results
PRT529 (protein, listed as Homo sapiens) CNCHGHASNCYYDPDVERQQASLNTQGIYAGGGVCINCQHNTAGVNCEQCAKGYYRPYGVPVDAPDGCIP	25	12.5	25	50	25	12.5	25	50	25	12.5	25	
PRT514 (protein, listed as Homo sapiens) CNCHGKAEECYYDENVARRNLSLNIRGKYIGGGVCINCTQNTAGINCETCTDGFFRPKGVSPNYPRPCQP	50	12.5	50	25	12.5	25	12.5	25	12.5	25	12.5	
PRT1182 (protein, listed as Homo sapiens) PREPCPGGACRVIDGCGSDAGPGMPGTAASGVCGPHGRCVSQPGGNFSCICDSGFTGTYCH	12.5											MIC E. coli BL21 (E. coli BL21; [1]): 25 µg/mL; MIC P. aeruginosa (Pseudomonas aeruginosa; [1]): 50 µg/mL; MIC K. pneumonia (Klebsiella pneumonia; [1]): 25 µg/mL; MIC E. cloacae (Enterobacter cloacae; [1]): 25 µg/mL; MIC A. hydrophila (Aeromonas hydrophila; [1]): 12.5 µg/mL; MIC C. diversus (Citrobacter diversus; [1]): 50 µg/mL; MIC M. catarrhalis (Moraxella catarrhalis; [1]): 12.5 µg/mL; MIC P. mirabilis (Proteus mirabilis; [1]): 50 µg/mL; MIC P. vulgaris (Proteus vulgaris; [1]): 12.5 µg/mL; MIC S. marcescens (Serratia marcescens; [1]): 25 µg/mL
PRT551 (protein, listed as Homo sapiens) CNCYGHATDCYYDPEVDRRRASQSLDGTYQGGGVCIDCQHHTTGVNCERCLPGFYRSPNHPLDSPHVCRR	12.5	25	50	25	12.5	25	50	25	12.5	25	50	
PRT1459 (protein, listed as Homo sapiens) CQCNSHSKSCHYNISVDPFPFEHFRGGGGVCDDCEHNTTGRNCELCKDYFFRQVGADPSAIDVCKP	12.5											MIC against E. coli BL21 (E. coli BL21; E. coli BL21, 10 h cultivation at 37° C.): 50 µg/mL; MIC against P. aeruginosa (Pseudomonas aeruginosa; Pseudomonas aeruginosa, 10 h cultivation at 37° C.): 25 µg/mL; MIC against K. pneumonia (Klebsiella pneumonia; Klebsiella pneumonia, 10 h cultivation at 37° C.): 25 µg/mL; MIC against E. cloacae (Enterobacter cloacae; Enterobacter cloacae, 10 h cultivation at 37° C.): 12.5 µg/mL; MIC against A. hydrophila (Aeromonas hydrophila; Aeromonas hydrophila, 10 h cultivation at 37° C.): 25 µg/mL; MIC against C. diversus (Citrobacter diversus; Citrobacter diversus, 10 h cultivation at 37° C.): 50 µg/mL; MIC against M. catarrhalis (Moraxella catarrhalis; Moraxella catarrhalis, 10 h cultivation at 37° C.): 12.5 µg/mL; MIC against P. mirabilis (Proteus mirabilis; Proteus mirabilis, 10 h cultivation at 37° C.): 25 µg/mL; MIC against P. vulgaris (Proteus vulgaris; Proteus vulgaris, 10 h cultivation at 37° C.): 50 µg/mL; MIC against S. marcescens (Serratia marcescens; Serratia marcescens, 10 h cultivation at 37° C.): 25 µg/mL
PRT588 (protein, listed as Homo sapiens) CDCNGHSETCHFDPAVFAASQGAYGGVCDNCRDHTEGKNCERCQLHYFRNRRPGASIQETCIS	12.5	25	50	25	12.5	25	12.5	25	12.5	25	12.5	
PRT593 (protein, listed as Homo sapiens) CFCNGHASECRPMQKMRGDVFSPPGMVHGQCVCQHNTDGPNCERCKDFFQDAPWRPAADLQDNACRS	25	50	25	12.5	25	50	25	12.5	25	50	25	
PRT477 (protein, listed as Homo sapiens) LCSQALCSGHGRCVRRTSHPKALLLLNPASFSIQLTPGGGPLSLRGALSLGDQAQMAVEFKCRCYPGWQAPWCE	12.5	50	12.5	50	25	12.5	25	50	25	12.5	25	
PRT480 (protein, listed as Homo sapiens) VCSLHLCRNNGRCIRKMWNAPSYLHLNPASYHIEASEDGEFTVKGKASDTDLAVMADTFSCHCYQGYEGADCR	12.5	25	50	25	12.5	25	50	25	12.5	25	50	
PRT587 (protein, listed as Homo sapiens) CFCHGHADRCAPKPGASAGPSTAVQVHDVCVCQHNTAGPNCERCAPFYNNRPWRPAEGQDAHECQR	25	50	25	12.5	25	50	25	12.5	25	50	25	
PRT499 (protein, listed as Homo sapiens) CNCHNKAKDCYYDESVAKQKKSLNTAGQFRGGGVCINCLQNTMGINCETCIDGYYRPHKVSPYEDEPCRP	12.5	25	100	25	12.5	25	12.5	25	50	25	12.5	
